In paper PMC10998878, “Inhibition of acyl-CoA binding protein (ACBP) by means of a GABAARγ2-derived peptide” (Cell Death & Disease, 2024):
Where no end group is shown, it is not given here.

Tests used:
[1] = system: Huh-7 cells; test: WST-8 conversion (metabolic activation) by Huh-7 cells; assay type: cell-based, human; settings: for effect on RecACBP/DBI-stimulated WST-8 conversion: then RecACBP/DBI 4 h, n = 4
Protocol: Media and cell culture supplements were purchased from Gibco-Invitrogen (Carlsbad, CA, USA). Plasticware was purchased from Corning B.V. Life Sciences (Schiphol-Rijk, The Netherlands). Unless reported otherwise, the cell line used in this study was cultured at standard conditions (37 °C, 5% CO2, Dulbecco’s modified Eagle’s medium containing 10% fetal bovine serum, 10 mM HEPES buffer, 100 mg/L sodium pyruvate, 100 U/mL penicillin G sodium, and 100 µg/mL streptomycin sulfate). 2-deoxy-D-glucose (# D8375) and rotenone (# R8875) were purchased from Sigma (Burlington, MA, USA). Human hepatocellular carcinoma (Huh-7) cell line was used for in vitro experiments. Cells were plated in 6- or 96-well plates and grown for 24 h before treatments.
(§1) WST-8 conversion assays were conducted utilizing the Cell Counting Kit-8 (Sigma-Aldrich, #96992). Cells were seeded in a 96-well plate at a density of 3000 cells per well and incubated overnight for adherence. Then, the culture medium was removed, and fresh medium containing the specified treatments was added to the wells. Immediately following the addition of treatments, 10 μL of CCK-8 reagent was introduced to each well. Subsequently, the cells were incubated for 4.5 h at 37 °C to facilitate the conversion of WST-8 in response to cellular activity. Following the incubation period, the absorbance at 450 nm was quantified using a VICTOR® Nivo™ microplate reader. This measurement served as an indicator of WST-8 conversion, reflecting cellular metabolic activity.
Fig. 6 Inhibition of the metabolic effects of ACBP/DBI on hepatocytes by the GABAARγ2-derived eicosapeptide. A WST-8 conversion by murine primary hepatocytes treated with increasing concentrations of recombinant ACBP/DBI protein (RecACBP/DBI) for 4 h. Hepatocytes were isolated from tamoxifen-induced Acbp/Dbi f/f or Acbp/Dbi KO full-body genetic background mice (white- or blue-colored graphs respectively). […] For statistical analysis p values are calculated by one-way ANOVA. B WST-8 conversion by control (shUNR) and ACBP/DBI-knocked down (shACBP/DBI) human Huh-7 cells treated with increasing concentrations of RecACBP/DBI for 4 h. shUNR and shACBP/DBI cells are represented by white- or blue-colored graphs respectively. […] C WST-8 conversion by Huh-7 cells treated with RecACBP/DBI or negative control (4 h). Cells were pre-treated with 2-deoxy-D-glucose (2-Deoxy-D-glu; 300 µM) or vehicle (2 h). […] D WST-8 conversion by Huh-7 cells treated with RecACBP/DBI or negative control (4 h). Cells were pre-treated with rotenone (0.5 µM) or vehicle (2 h). […] E WST-8 conversion by Huh-7 cells treated with RecACBP/DBI or negative control (4 h). Prior to administration, RecACBP/DBI was overnight pre-incubated with monoclonal antibody (α-ACBP/DBI) or isotype IgG1. […] F WST-8 conversion by Huh-7 cells treated with RecACBP/DBI or negative control (4 h). Prior to administration, RecACBP/DBI was overnight pre-incubated with GABAARγ2 (WT or F77I-mutated) eicosapeptides.

[2] = system: native ACBP/DBI protein (mouse liver extracts); test: Pull down / immunoprecipitation of native ACBP/DBI from liver extracts; assay type: binding; settings: mouse liver protein extract (500 μg), peptide-coated beads, overnight 4 °C, immunoblot for ACBP
Protocol: The physical interaction between the native ACBP and GABAARγ2 peptides was examined by standard immunoprecipitation (IP) and immunoblotting protocols. In detail, liver protein extracts (500 μg) were immunoprecipitated on protein A/G-Sepharose beads (Merck Millipore, Burlington, MA, USA, #GE17-0618-01) coated with (1× 2× 4×) either GABAARγ2 wild type (WT) or mutated (F77I) eicosapeptide (Biosynth ltd) or its negative control (PBS). Each IP reaction was incubated overnight (4 °C) in a rotation chamber followed by three consecutive rounds of PBS washing the next day. Each washing round included a PBS resuspension of the pellet and a re-centrifugation (12,000 × g, 4 °C). Finally, beads were resuspended in 20 μL of NUPAGE 4× buffer (Life Technologies, CA, USA, #NP0008), heated at 100 °C (10 min), followed by standard immunoblotting for the ACBP protein (Abcam #ab231910).
Fig. 5 Biophysical and biochemical detection of a direct interaction between ACBP/DBI and the GABAARγ2-derived eicosapeptide. A Schematic representation of the GABAAR and the GABAARγ2-derived eicosapeptides. B Surface plasmon resonance kinetics of ACBP-GABAARγ2-derived eicosapeptide (WT and F77I) interactions. Representative ACBP immunoblot (C) from control- or GABAARγ2-immunoprecipitated samples. Anti-GABAARγ2 immunoprecipitation (IP) assay was employed in order to validate the GABAARγ2 WT peptide interaction with native ACBP (in murine hepatic protein extracts), and quantification (D). […] For statistical analysis p value (indicating statistical comparisons with the control condition) was calculated by Mann–Whitney U-test. E Anti-GABAARγ2 IP assay to address the physical interaction between GABAARγ2 peptides and murine hepatic ACBP protein. Interaction was validated using an increasing gradient of biotinylated WT/F77I peptides that were bound on the surface of streptavidin beads as part of the IP assay. […]

[3] = target: T1, recombinant murine ACBP/DBI (acyl-CoA binding protein / diazepam binding inhibitor) (mouse, UniProt P31786 1-87, biotin (site not stated; for the SPR chip)); test: SPR; Biacore 2000; biotinylated ACBP/DBI immobilised on SA chip (1600 RU); peptides injected at 10 µM and 100 µM in HBS-EP, 30 µL/min, 25 °C; association 4 min, dissociation 5 min; control surface streptavidin alone; settings: both partners purified
T1 construct: Biotinylated for immobilisation on the SA chip; in the food intake experiment murine RecACBP/DBI was injected and no biotin is mentioned; also called RecACBP/DBI; recombinant ACBP/DBI; source: recombinant, from the Institute of Psychiatry and Neuroscience of Paris, France
T1 sequence (looked up): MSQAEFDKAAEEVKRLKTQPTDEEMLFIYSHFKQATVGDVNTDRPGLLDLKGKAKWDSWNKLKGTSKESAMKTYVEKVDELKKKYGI

[4] = system: primary mouse hepatocytes; test: WST-8 conversion (metabolic activation) by primary hepatocytes; assay type: cell-based; settings: Acbp/Dbi f/f and KO, increasing concentrations of RecACBP/DBI, 4 h (text: within 4.5 h), n = 3
Protocol: After filtration through a 100 µm cell strainer and successive centrifugations at 30 × g, 4 °C for 5 min, cells were resuspended in the following attachment culture medium: DMEM/F12, 20 mM HEPES (pH = 7.4), 5 mM glucose, 10% FBS (Sigma), 5 mg/mL BSA, 100 U/mL penicillin, and 100 μg/mL streptomycin. The cells were then purified by density gradient centrifugation using an isotonic solution of Percoll (GE Healthcare Bio-Sciences AB, Uppsala, Sweden). Cell viability was assessed using Trypan blue exclusion. Cells were plated in a 96-well plate overnight to facilitate cell attachment before proceeding with experiments.
as §1, with “Subsequently, the cells were incubated for 4.5 h at 37 °C to facilitate the conversion of WST-8 in response to cellular activity.” left out, “This measurement served as an indicator of WST-8 conversion, reflecting cellular metabolic activity.” left out
Fig. 6 Inhibition of the metabolic effects of ACBP/DBI on hepatocytes by the GABAARγ2-derived eicosapeptide. […] For statistical analysis p values are calculated by one-way ANOVA. […]

[5] = system: C57BL/6 mice; test: Food intake after intravenous injection; assay type: in vivo, mouse; settings: i.v., 0.5 mg/kg, after 24 h starvation, cumulative food intake 30 min, n = 4 to 9
Protocol: Prior to experimentation, mice were subjected to 24 h starvation followed by individual housing and acclimatization in individual cages (2 h). Subsequently, mice were intravenously (i.v.) injected with recombinant ACBP/DBI protein (RecACBP/DBI) (total volume of 200 μL, 0.5 mg/kg body weight), either alone or in combination with GABAARγ2 peptides (5× molar excess). Cumulative food intake was then analyzed as previously described. Prior to i.v. injections, the RecACBP mixes were pre-incubated (16 h, 4 °C) with GABAARγ2 peptides.

Molecule: O=CC[C@@H](O)[C@H](O)[C@H](O)CO [2-deoxy-D-glucose, reference compound]
- effect on RecACBP/DBI-stimulated WST-8 conversion ([1]; pre-treated with 2-deoxy-D-glucose 300 µM for 2 h): abolished

Molecule: C=C(C)[C@H]1Cc2c(ccc3c2O[C@@H]2COc4cc(OC)c(OC)cc4[C@@H]2C3=O)O1 [rotenone, reference compound]
- effect on RecACBP/DBI-stimulated WST-8 conversion ([1]; pre-treated with rotenone 0.5 µM for 2 h): abolished

Molecule: Biotinylated GABAARγ2-EP-WT: Biotinylated GABAARγ2-EP-WT immobilized on streptavidin-precoated beads (INMEYTIDIFFAQTWYDRRL; also: biotin, site not given here)
- pull down of endogenous/native ACBP/DBI, in words [2]: absorbed endogenous ACBP/DBI protein from mouse liver extracts

B1: GABAARγ2-derived eicosapeptide, wild type (GABAARγ2-EP-WT) (peptide)
peptide: INMEYTIDIFFAQTWYDRRL
notes: GABAA receptor gamma-2 subunit (GABRG2), 20-mer with F77 in position 10; 100% identical in zebrafish, chicken, mouse and human; Stocked in DMSO at 1 mg/mL; used without a stated biotin in SPR and in the functional tests; also called GABAARγ2 WT peptide; WT EP; source: synthetic peptide (Biosynth ltd)
- binding result [3]: binds

B2: recombinant ACBP/DBI protein: recombinant acyl-CoA binding protein encoded by diazepam binding inhibitor (protein)
chain: MSQAEFDKAAEEVKRLKTQPTDEEMLFIYSHFKQATVGDVNTDRPGLLDLKGKAKWDSWNKLKGTSKESAMKTYVEKVDELKKKYGI
modifications: biotin (site not stated; for the SPR chip)
- WST-8 conversion, metabolic activation by the substance [4]: increase in the capacity to reduce
- food intake / appetite, effect of recombinant ACBP/DBI [5]: induced an increase in appetite
- WST-8 conversion, metabolic activation by the substance ([1]; shUNR and shACBP/DBI, increasing concentrations of RecACBP/DBI, 4 h (text: within 4.5 h), n = 8–9): increase in the capacity to reduce
